Assay results: patent US20250270343A1 (Alector, published 2025)
Positions count from the first letter of the chain named.

T1: full-length untagged human GPNMB expressed on cells (human, UniProt Q14956 23-572)
T1 sequence: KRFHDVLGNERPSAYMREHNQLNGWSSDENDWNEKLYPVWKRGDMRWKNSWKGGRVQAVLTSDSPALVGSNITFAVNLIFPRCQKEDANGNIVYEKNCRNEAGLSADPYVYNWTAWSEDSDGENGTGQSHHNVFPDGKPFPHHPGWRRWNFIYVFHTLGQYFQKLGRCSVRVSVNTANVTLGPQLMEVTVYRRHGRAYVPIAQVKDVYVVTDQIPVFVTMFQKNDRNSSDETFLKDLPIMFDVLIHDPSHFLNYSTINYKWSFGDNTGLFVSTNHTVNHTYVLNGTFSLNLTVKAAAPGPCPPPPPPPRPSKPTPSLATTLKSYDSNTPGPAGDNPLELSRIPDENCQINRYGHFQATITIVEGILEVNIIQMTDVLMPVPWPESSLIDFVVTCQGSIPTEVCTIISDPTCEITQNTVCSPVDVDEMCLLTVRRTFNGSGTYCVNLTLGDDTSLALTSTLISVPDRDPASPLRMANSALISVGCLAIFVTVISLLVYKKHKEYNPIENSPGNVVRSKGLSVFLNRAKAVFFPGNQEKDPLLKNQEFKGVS

T2: soluble human GPNMB (recombinant extracellular domain) (human, UniProt Q14956 23-498)
T2 construct: also called huGPNMB; recombinant human GPNMB extracellular domain; not shown: C-terminal polyhistidine or Avi-His tag
T2 sequence: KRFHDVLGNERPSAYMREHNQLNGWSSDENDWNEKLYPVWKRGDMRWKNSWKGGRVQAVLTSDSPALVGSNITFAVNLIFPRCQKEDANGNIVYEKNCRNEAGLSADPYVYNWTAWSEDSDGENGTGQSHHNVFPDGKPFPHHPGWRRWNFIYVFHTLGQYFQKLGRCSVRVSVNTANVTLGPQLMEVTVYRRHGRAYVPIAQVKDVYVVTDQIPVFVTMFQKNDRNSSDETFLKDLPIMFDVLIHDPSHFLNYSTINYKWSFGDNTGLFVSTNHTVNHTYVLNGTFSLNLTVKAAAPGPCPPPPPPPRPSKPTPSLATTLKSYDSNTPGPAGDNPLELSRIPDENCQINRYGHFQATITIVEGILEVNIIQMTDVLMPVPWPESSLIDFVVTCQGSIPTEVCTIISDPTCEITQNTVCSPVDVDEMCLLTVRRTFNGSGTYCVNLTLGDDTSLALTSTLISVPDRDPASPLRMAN

T3: soluble mouse GPNMB-Fc polypeptide (mouse IgG2A Fc) (mouse, UniProt Q99P91 23-502)
T3 construct: extracellular domain; bought (R&D System); also called moGPNMB-Fc; mGPNMB-Fc; not shown: Fc region of mouse IgG2A
T3 sequence (looked up): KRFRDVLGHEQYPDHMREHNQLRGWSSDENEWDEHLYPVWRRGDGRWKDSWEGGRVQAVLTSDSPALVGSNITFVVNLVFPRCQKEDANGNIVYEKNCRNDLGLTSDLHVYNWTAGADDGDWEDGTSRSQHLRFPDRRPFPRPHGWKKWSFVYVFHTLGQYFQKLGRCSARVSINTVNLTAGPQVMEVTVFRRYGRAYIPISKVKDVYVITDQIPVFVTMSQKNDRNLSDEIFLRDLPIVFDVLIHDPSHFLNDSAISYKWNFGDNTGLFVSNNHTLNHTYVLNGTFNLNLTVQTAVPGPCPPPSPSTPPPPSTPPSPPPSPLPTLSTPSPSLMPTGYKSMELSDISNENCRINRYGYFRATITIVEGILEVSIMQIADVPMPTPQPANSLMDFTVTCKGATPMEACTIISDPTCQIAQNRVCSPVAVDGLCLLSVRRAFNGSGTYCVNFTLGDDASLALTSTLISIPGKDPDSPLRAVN

B1: anti-GPNMB antibody GPN-83 (antibody, V domains shown)
VH: QVQLQESGPGLVKPSETLSLTCTVSGISITTGNYRWSWIRQPPGKGLEWIGYIDYSGTITYNPSLKSRVTITRDTSKNQFSLELSSVTAADTAVYYCARDLTHWYFDVWGQGTLVTVSS
VL: DIVMTQSPDSLAVSLGERATINCKSSRSVDYYGIGFVNWYQQKPGQPPKLLIYATSIQGSGVPDRFSGSGSGTDFTLTISSLQAEDVAVYYCQQQKEVPPTFGGGTKVEIK
B2: anti-GPNMB antibody GPN-86 (antibody, V domains shown)
VH: B1 VH
VL: B1 VL with V37L, I57K
B3: anti-GPNMB antibody GPN-87 (antibody, V domains shown)
VH: B1 VH with F106Y
VL: B1 VL with V37L, I57K
B4: anti-GPNMB antibody GPN-85 (antibody, V domains shown)
VH: B1 VH with S67Q
VL: B1 VL with Y32F, V37L, I57H
B5: anti-GPNMB antibody GPN-89 (antibody, V domains shown)
VH: B1 VH with F106Y
VL: B1 VL with V37L, I57H
B6: anti-GPNMB antibody GPN-90 (antibody, V domains shown)
VH: B1 VH with S67Q
VL: B1 VL with V37L, I57H
B7: anti-GPNMB antibody GPN-84 (antibody, V domains shown)
VH: B1 VH with F106Y
VL: B1 VL
B8: anti-GPNMB antibody GPN-91 (antibody, V domains shown)
VH: B1 VH
VL: B1 VL with V37L, I57H, V98R
B9: anti-GPNMB antibody GPN-88 (antibody, V domains shown)
VH: B1 VH
VL: B1 VL with V37L, I57H, E97H

The binders below were run against T1, full-length untagged human GPNMB … (assay: cell-based or functional assay).

Compared with B1, B2 is 1.5-fold higher in “EC50 PDL1” value: 0.91 nM for the first, 1.37 nM for the second.

B3 and B4 are within 1.5-fold of each other in “EC50 PDL1” value: 1.36 nM for the first, 0.97 nM for the second.

B5 and B6 are within 1.5-fold of each other in “EC50 PDL1” value: 1 nM for the first, 0.68 nM for the second.

Going from B1 to B2, the “Fold Increase CD40 (max response at 1 µg/ml)” value (“Fold Increase CD40” below) rises from 2.1 fold to 2.15 fold.

Compared with B3, B4 is lower in “Fold Increase CD40” value: 2.15 fold for the first, 2.1 fold for the second.

B5 and B6 are the same in “Fold Increase CD40” value: 2.12 fold for the first, 2.12 fold for the second.

Compared with B1, B2 is higher in “Fold Increase PDL1 (max response at 1 µg/ml)” value (from here on “Fold Increase PDL1”): 4.31 fold for the first, 4.57 fold for the second.

Going from B3 to B4, the “Fold Increase PDL1” value falls from 4.4 fold to 4.22 fold.

First: B5
Second: B6
The “Fold Increase PDL1” value of the first is lower: 4.22 fold for the first, 4.28 fold for the second.

What follows are binders tested against T2, soluble human GPNMB (recombinant …) (assay: SPR Biacore, IgG captured).
Protocol: Binding kinetics of the humanized and affinity matured anti-GPNMB antibodies described above were evaluated using the Biacore T200 (Cytiva). Briefly, IgGs were diluted to 10 μg/mL and captured using a Protein A/G (ThermioFisher, #21186) surface on a CM5 chip that was prepared by amine coupling according to the instrument manufacturer's recommendations. The captured antibodies were tested for their ability to bind human, cynomolgus monkey, and mouse GPNMB recombinant proteins as follows.
Human, cynomolgus, and mouse GPNMB analytes were diluted in running buffer (HBS-EP+, Teknova, #8022, with 0.5 mg/ml BSA, MP Biomedicals LLC, #820451), to a concentration of 300 nM, then diluted 3-fold serially to 100 nM, 33 nM, and 11 nM. Each sample was injected for 2 minutes to allow association, followed by dissociation in buffer alone for 10 minutes. Each sample injection was followed by the regeneration of the chip with three 30-second injections of 10 mM glycine, pH 1.7. Fresh antibody was captured at the beginning of each cycle.
Data were analyzed using Biacore evaluation software to generate kinetic constants. The equilibrium dissociation constants (KD) were calculated from the fitted association and dissociation rate constants (k-on and k-off) for each of the anti-GPNMB antibodies.

Going from B1 to B2, the Kd falls from 7.5 nM to 4.5 nM (1.7-fold).

Going from B7 to B3, the Kd falls from 9.6 nM to 5.4 nM (1.8-fold). The second binds more tightly here.

Compared with B4, B8 is 3-fold higher in Kd: 1 nM for the first, 3 nM for the second.

B9 and B5 are within 1.5-fold of each other in Kd: 3.1 nM for the first, 2.9 nM for the second.

Binder B6 has a Kd of 2.8 nM.

B1 and B2 are within 1.5-fold of each other in koff: 0.0016 s⁻¹ for the first, 0.0012 s⁻¹ for the second.

Going from B7 to B3, the koff falls from 0.0021 s⁻¹ to 0.0013 s⁻¹ (1.6-fold).

Going from B4 to B8, the koff rises from 0.00018 s⁻¹ to 0.00053 s⁻¹ (2.9-fold).

B9 and B5 are within 1.5-fold of each other in koff: 0.00063 s⁻¹ for the first, 0.00057 s⁻¹ for the second.

B6 showed a koff of 0.00053 s⁻¹.

B1 and B2 are within 1.5-fold of each other in kon: 210000 M⁻¹ s⁻¹ for the first, 260000 M⁻¹ s⁻¹ for the second.

B7 and B3 are within 1.5-fold of each other in kon: 220000 M⁻¹ s⁻¹ for the first, 250000 M⁻¹ s⁻¹ for the second.

B4 and B8 are within 1.5-fold of each other in kon: 170000 M⁻¹ s⁻¹ for the first, 180000 M⁻¹ s⁻¹ for the second.

B9 and B5 are the same in kon: 200000 M⁻¹ s⁻¹ for the first, 200000 M⁻¹ s⁻¹ for the second.

For B6, the kon was 190000 M⁻¹ s⁻¹.

Each binder was assayed against T3, soluble mouse GPNMB-Fc polypeptide … (assay: FACS, blocking of mGPNMB-Fc binding to SVEC cells).
Protocol: Purified full-length affinity matured, anti-GPNMB antibodies were evaluated for their ability to block binding of mouse GPNMB-Fc to SVEC cells to calculate the ligand blocking potency of each clone. Briefly, 2 μg/ml soluble mGPNMB-Fc (mouse IgG2A Fc) diluted in binding buffer was pre-complexed with increasing concentrations of anti-GPNMB antibody or human IgG1 isotype control in 96-well plates. Subsequently, 100,000 SVEC cells were added per well and incubated on ice for 30 minutes. Soluble GPNMB-Fc bound to cell surface was detected with fluorescent anti-mouse IgG2A secondary antibody and measured on FACSCanto. Curves were fit using nonlinear regression analysis with Graphpad Prism 6 software.

B1 and B2 are within 1.5-fold of each other in IC50: 1.49 nM for the first, 1.26 nM for the second.

B7 and B3 are within 1.5-fold of each other in IC50: 1.44 nM for the first, 0.98 nM for the second.

Compared with B4, B8 is 2.4-fold lower in IC50: 1.51 nM for the first, 0.64 nM for the second. The second is the more potent here.

First: B9
Second: B5
The IC50 of the first is 1.9-fold lower: 0.625 nM for the first, 1.18 nM for the second.

For B6, the IC50 was 1.43 nM.
